The source of these data is PMC12004451, “Characterization of the Two-Domain Peptide Binding Mechanism of the Human CGRP Receptor for CGRP and the Ultrahigh Affinity ssCGRP Variant” (Biochemistry, 2025).

Several values for one entry are separate records, joined by “and”; a condition that tells them apart may be missing. Equal values may be shown once. Read-outs that look alike come from different tables or passages of the source. Ends that are not written are not given here. Peptide text beside a SMILES is read from it. * marks the point of attachment. 5TAMRA = CN(C)c1ccc2c(c1)Oc1cc(N(C)C)ccc1C21OC(=O)c2cc(C(=O)*)ccc21

In data set [1] the target is T1, CGRP receptor (Nluc-CLR:RAMP1) (Homo sapiens, UniProt O60894+Q16602).
T1 construct: N-terminally Nanoluciferase (NLuc)-tagged CLR (pcDNA3.1(+)sec/NanoLuc-GSGIS-CLR.23-461); Wild-type CLR and RAMP expression plasmids were obtained from cDNA.org; sec (vector secretion signal before NanoLuc) (N); expressed in transfected cells; host or cells: COS-7 cells, membrane preparation
Briefly: nanoBRET dissociation kinetics of TAMRA probes. In kind it is binding. On the procedure: After 2 days, the cells were washed with PBS and harvested with ice-cold PBS + 5 mM EDTA. The cells were pelleted in a centrifuge at 1000g for 5 min at 4 °C and resuspended in a hypotonic buffer (25 mM NaHEPES pH 7.5, 2 mM MgCl2, 1 mM EDTA, and 1× EDTA-free PIERCE protease inhibitor tablet). After resuspension, cells were homogenized with an Ultra Turrax for 30 s at 10,000 rpm followed by a 10 min incubation. Cell debris was pelleted at 800g for 10 min and the supernatant was transferred to ultracentrifuge tubes and centrifuged at 100,000g for 1 h. Membranes were resuspended in a wash buffer (25 mM NaHEPES pH 7.5, 250 mM NaCl, 2 mM MgCl2, 1 mM EDTA, and 1× protease inhibitor tablet). The homogenization and ultracentrifugation were repeated once more and the membranes were resuspended in storage buffer (25 mM NaHEPES pH 7.5, 25 mM NaCl, 2 mM MgCl2, 10% v/v glycerol, and 1× protease inhibitor tablet). The resuspended membranes were homogenized, aliquoted, and flash frozen in liquid nitrogen for storage at -80 °C. Total protein was quantitated using the DC protein assay (BioRad) per the manufacturer's instructions. The concentration of NLuc-CLR was determined by comparing the membrane prep luminescence to a standard curve using purified NLuc enzyme (Promega; […]). The total protein concentration was 0.91 mg/mL and the NLuc-CLR was 7.35 nM. For dissociation kinetics, the membranes and probe in binding buffer were incubated in a 96-well white plate (Corning; Costar 3912) followed by furimazine addition at 1× for 5 min (75 μL volume). […] The buffer control defined the stability of the signal. […] Unlabeled […](8-37) (4×; 10 μM) or binding buffer was loaded into the injectors and injected into the plate, which was read for 4 h. […](8-37) (4×; 1 μM) or binding buffer was loaded into the injectors and injected into the plate, which was read for 1 h. The BRET ratio 610/460 was plotted against time and the membrane only control was subtracted. The dissociation data were normalized to their corresponding buffer control injections as 100% (100*value/baseline) to account for signal decay with time. The normalized dissociation curves were fit to a one-phase (dashed line) (https://www.graphpad.com/guides/prism/latest/curve-fitting/reg_exponential_[…]) or a two-phase (solid line) (https://www.graphpad.com/guides/prism/latest/curve-fitting/reg_exponential_[…]) exponential decay models in GraphPad Prism to determine the koff.
For orientation: BRET reads energy transfer from a luciferase to a nearby fluorophore.

The target of data set [2] is T1, CGRP receptor (Nluc-CLR:RAMP1). The experiment in a line: nanoBRET association kinetics of TAMRA probes. Format: binding. The note with it: association kinetics, 25 °C, mean ± SEM, n=3. The protocol:
After 2 days, the cells were washed with PBS and harvested with ice-cold PBS + 5 mM EDTA. The cells were pelleted in a centrifuge at 1000g for 5 min at 4 °C and resuspended in a hypotonic buffer (25 mM NaHEPES pH 7.5, 2 mM MgCl2, 1 mM EDTA, and 1× EDTA-free PIERCE protease inhibitor tablet). After resuspension, cells were homogenized with an Ultra Turrax for 30 s at 10,000 rpm followed by a 10 min incubation. Cell debris was pelleted at 800g for 10 min and the supernatant was transferred to ultracentrifuge tubes and centrifuged at 100,000g for 1 h. Membranes were resuspended in a wash buffer (25 mM NaHEPES pH 7.5, 250 mM NaCl, 2 mM MgCl2, 1 mM EDTA, and 1× protease inhibitor tablet). The homogenization and ultracentrifugation were repeated once more and the membranes were resuspended in storage buffer (25 mM NaHEPES pH 7.5, 25 mM NaCl, 2 mM MgCl2, 10% v/v glycerol, and 1× protease inhibitor tablet). The resuspended membranes were homogenized, aliquoted, and flash frozen in liquid nitrogen for storage at -80 °C. Total protein was quantitated using the DC protein assay (BioRad) per the manufacturer's instructions. The concentration of NLuc-CLR was determined by comparing the membrane prep luminescence to a standard curve using purified NLuc enzyme (Promega; […]). […] Costar 3912). […] The observed association rates (kobs) were plotted against probe concentration and the data was analyzed by linear regression. The kon and koff were obtained as the slope and y-intercept, respectively.

For data set [3], the target named is NLuc-CLR:RAMP1 membranes with 30 μM purified sumo-miniGs (G protein-coupled state of the CGRPR) (UniProt Q16602). Briefly: FRET or BRET; nanoBRET equilibrium saturation binding; as the uncoupled format but with 30 μM purified sumo-miniGs (G protein coupled state); 4 h; room temperature.
Data set [4] concerns the target NLuc-CLR:RAMP1 (human CGRP receptor, CGRPR), membrane preparation (human) (UniProt Q16602). Briefly: FRET or BRET; nanoBRET association kinetics; membranes injected into 2-fold serial dilutions of TAMRA probe; 25 °C; one-phase association fits, kobs against probe concentration by linear regression (kon slope, koff intercept); Kd calculated as koff/kon.
Data set [5] has the same target.
For data set [6] the target is unchanged. The experiment in a line: FRET or BRET; nanoBRET competition association kinetics, simultaneous addition of 20 nM CGRP(27-37)*-TAMRA and unlabeled (27-37) peptide; 25 °C; Motulsky-Mahan equation with a signal decay term; Kd calculated as koff/kon.
The target of data set [7] is T1, CGRP receptor (Nluc-CLR:RAMP1). The experiment in a line: nanoBRET equilibrium competition binding, Nluc-CLR:RAMP1 membranes. The settings on record: 8 h, room temperature, Cheng-Prusoff, mean ± SEM, n=3. On the procedure:
After 2 days, the cells were washed with PBS and harvested with ice-cold PBS + 5 mM EDTA. The cells were pelleted in a centrifuge at 1000g for 5 min at 4 °C and resuspended in a hypotonic buffer (25 mM NaHEPES pH 7.5, 2 mM MgCl2, 1 mM EDTA, and 1× EDTA-free PIERCE protease inhibitor tablet). After resuspension, cells were homogenized with an Ultra Turrax for 30 s at 10,000 rpm followed by a 10 min incubation. Cell debris was pelleted at 800g for 10 min and the supernatant was transferred to ultracentrifuge tubes and centrifuged at 100,000g for 1 h. Membranes were resuspended in a wash buffer (25 mM NaHEPES pH 7.5, 250 mM NaCl, 2 mM MgCl2, 1 mM EDTA, and 1× protease inhibitor tablet). The homogenization and ultracentrifugation were repeated once more and the membranes were resuspended in storage buffer (25 mM NaHEPES pH 7.5, 25 mM NaCl, 2 mM MgCl2, 10% v/v glycerol, and 1× protease inhibitor tablet). The resuspended membranes were homogenized, aliquoted, and flash frozen in liquid nitrogen for storage at -80 °C. Total protein was quantitated using the DC protein assay (BioRad) per the manufacturer's instructions. The concentration of NLuc-CLR was determined by comparing the membrane prep luminescence to a standard curve using purified NLuc enzyme (Promega; […]). […] The Cheng-Prusoff correction[30] was used to calculate the Ki from the IC50.

The target in data set [8] is NLuc-CLR:RAMP1 (human CGRP receptor, CGRPR), membrane preparation (human) (UniProt Q16602). The experiment in a line: FRET or BRET; nanoBRET dissociation kinetics; membranes preincubated with probe (1 nM ssCGRP(8-37)-TAMRA or 10 nM AM2/IMD(8-47)-TAMRA), dissociation started by injection of excess unlabeled ssCGRP(8-37); 25 °C; normalised to buffer control; two-phase exponential decay.

The target is the same in data set [9]. Briefly: FRET or BRET; nanoBRET equilibrium saturation binding; 3-fold serial dilutions of TAMRA probe with NLuc-CLR:RAMP1 membranes (0.01 mg/mL total protein, 0.08 nM NLuc-CLR) and 50 μM GTPγS (uncoupled state); 2 h or 4 h; room temperature; 25 mM NaHEPES pH 7.4, […] NaCl, 5 mM KCl, 1 mM KH2PO4, 3 mM MgSO4, 2 mM CaCl2, 1 mg/mL FAF-BSA, 50 μg/mL saponin; one-site specific binding fit.

For data set [10], the target named is NLuc-CLR:RAMP1 (human CGRP receptor, CGRPR) in COS-7 membranes (human) (UniProt Q16602). Briefly: FRET or BRET; nanoBRET association kinetics of TAMRA probe on NLuc-CLR:RAMP1 COS-7 membranes, 25 C; kobs against probe concentration, linear regression; Kd calculated as koff/kon.
The target is the same in data set [11]. The experiment in a line: FRET or BRET; nanoBRET equilibrium saturation binding of TAMRA probe to NLuc-CLR:RAMP1 COS-7 membranes (0.08 nM NLuc-CLR), G protein uncoupled state with 50 uM GTPgammaS, room temperature, 25 mM NaHEPES pH 7.4, […] NaCl; one-site specific binding fit.
The mark [12] stands for this setting: 1/koff slow, two-phase dissociation, read-out: Residence time slow.

`CC(C)C[C@H](NC(=O)CNC(=O)[C@H](C)NC(=O)[C@H](CC(C)C)NC(=O)[C@H](CCCNC(=N)N)NC(=O)[C@H](Cc1c[nH]cn1)NC(=O)[C@@H](NC(=O)[C@@H](N)C(C)C)[C@@H](C)O)C(=O)N[C@@H](CC(C)C)C(=O)N[C@@H](CO)C(=O)N[C@@H](CCCNC(=N)N)C(=O)N[C@@H](CO)C(=O)NCC(=O)NCC(=O)N[C@H](C(=O)N[C@H](C(=O)N[C@@H](CCCCN)C(=O)N[C@@H](CC(N)=O)C(=O)N[C@@H](CCCCNC(=O)c1ccc2c(c1)C(=O)OC21c2ccc(N(C)C)cc2Oc2cc(N(C)C)ccc21)C(=O)N[C@@H](Cc1ccccc1)C(=O)N[C@H](C(=O)N1CCC[C@H]1C(=O)N[C@H](C(=O)N[C@@H](CC(=O)O)C(=O)N[C@H](C(=O)NCC(=O)N1CCC[C@H]1C(=O)N[C@@H](Cc1c[nH]c2ccccc12)C(=O)N[C@@H](CO)C(=O)N[C@@H](Cc1ccccc1)C(N)=O)C(C)C)[C@@H](C)O)C(C)C)C(C)C)C(C)C` [ssCGRP(8-37)-TAMRA, αCGRP(8-37) N26K-TAMRA/N31D/S34P/K35W/A36S] (H-VTHRLAGLLSRSGGVVKNK(5TAMRA)FVPTDVGPWSF-NH2; N-terminus assumed): the residence time (in general, how long the partners stay bound on average) in data set [1] (1/koff fast, two-phase dissociation, read-out: Residence time fast) stood at 19.1 ± 1.9 min; in data set [1] (setting [12]), 75.7 ± 3.49 min. Further, in data set [1] (ln 2/koff fast, two-phase dissociation), the t1/2 fast was 13.25 ± 1.32 min and 13 min. Besides, the t1/2 slow in [1] (ln 2/koff slow, two-phase dissociation) was 52.45 ± 2.42 min and 52 min. In addition, in [1] (share of the fast component, two-phase dissociation), the Percent fast is 25.6 ± 3.5% and 25.6%. In addition, the koff (usually the first-order rate constant of dissociation) in data set [1] (two-phase exponential decay, same conditions as koff fast, mean ± SEM, n=3) was 0.000222 s⁻¹; in [2] (y-intercept of kobs vs probe concentration), 0.0003 s⁻¹. In addition, the on-rate (kon) (as a rule, the second-order rate constant of association) in [2] (kobs vs probe concentration, slope of linear regression, fit of first 10 min (full 1 h 15 min for ssCGRP(8-37)-TAMRA)) was 3.62e+06 M⁻¹ s⁻¹.

As to AM2/IMD(8-47)-TAMRA (peptide), the Kd (as a rule, a measure of binding affinity in units of concentration) in [3] was 6.5 nM; in data set [4], 8.1 nM. For the same compound, the half-life in [4] is 1.6 min.

In the case of CGRP(27-37) (peptide), the apparent melting temperature of LMNG/CHS-solubilised MBP-CLR-EGFP:MBP-RAMP1 heterodimer, native PAGE thermostability assay (ligand-free 38.2 °C) in data set [5] came to 39.8 °C. Also, the half-life in data set [6] was 0.06 min.

Compound “VTHRLAGLLSRSGGVVKNNFVPTDVGPWSF-NH2 [ssCGRP(8-37)]” came in with an affinity (summary, both receptor states) of 0.5 nM. Also, the inhibition constant Ki (in general, a measure of affinity in units of concentration, obtained from inhibition or displacement) in data set [7] (G protein coupled state (30 μM sumo-miniGs), 3 nM AM2/IMD(8-47)-TAMRA probe, read-out: Ki + mGs) stood at 0.6 ± 0.05 nM. Moreover, the Ki in data set [7] (G protein uncoupled state (50 μM GTPγS), 30 nM AM2/IMD(8-47)-TAMRA probe, read-out: Ki + GTPγS) amounted to 0.43 ± 0.02 nM. Further, the residence time in [1] (setting [12]) was 76 min.

As for αCGRP(8-37) (peptide), the apparent melting temperature of LMNG/CHS-solubilised MBP-CLR-EGFP:MBP-RAMP1 heterodimer, native PAGE thermostability assay (ligand-free 38.2 °C) in data set [5] is 43.6 °C.

Take “αCGRP(8-37) N26K-TAMRA/N31D/S34P/K35W/A36S (peptide)”: in data set [8], the half-life of the fast component worked out at 13 min, the half-life of the slow component was determined as 52 min, the koff fast was determined as 0.053 min^–1 and the koff slow worked out at 0.013 min^–1. Moreover, in data set [8], the residence time (1/koff slow) is 76 min and the residence time of the fast component was determined as 19 min. For the same compound, the Kd in data set [9] was 0.4 nM. Moreover, in data set [4], the Kd is 0.085 nM, the half-life was 38 min, the koff is 0.0003 s⁻¹ and the kon is 3.62e+06 M⁻¹ s⁻¹.

Consider “αCGRP(27-37) N31D/S34P/K35-TAMRA/A36S/F37Y (peptide)”, for which, in data set [10], the Kd was 22.5 nM. Moreover, the dissociation constant (Kd) in data set [11] was found to be 28.7 nM. Also, the dissociation constant (Kd) in data set [9] worked out at 28.7 nM. Besides, in data set [4], the dissociation constant (Kd) is 22.5 nM, the half-life is 0.183 min, the dissociation rate constant (koff) is 0.0635 s⁻¹ and the kon was 2.75e+06 M⁻¹ s⁻¹.
